US20230265179A1 (TWIST BIOSCIENCE, published 2023)

T1: IL1RL2 over-expressed on Expi293 cells (UniProt Q9HB29 20-575, limits assumed)
T1 construct: whole, on cells; Target of the flow cytometry assay; MFI ratio is over-expressing cells over parent cells
T1 sequence (looked up): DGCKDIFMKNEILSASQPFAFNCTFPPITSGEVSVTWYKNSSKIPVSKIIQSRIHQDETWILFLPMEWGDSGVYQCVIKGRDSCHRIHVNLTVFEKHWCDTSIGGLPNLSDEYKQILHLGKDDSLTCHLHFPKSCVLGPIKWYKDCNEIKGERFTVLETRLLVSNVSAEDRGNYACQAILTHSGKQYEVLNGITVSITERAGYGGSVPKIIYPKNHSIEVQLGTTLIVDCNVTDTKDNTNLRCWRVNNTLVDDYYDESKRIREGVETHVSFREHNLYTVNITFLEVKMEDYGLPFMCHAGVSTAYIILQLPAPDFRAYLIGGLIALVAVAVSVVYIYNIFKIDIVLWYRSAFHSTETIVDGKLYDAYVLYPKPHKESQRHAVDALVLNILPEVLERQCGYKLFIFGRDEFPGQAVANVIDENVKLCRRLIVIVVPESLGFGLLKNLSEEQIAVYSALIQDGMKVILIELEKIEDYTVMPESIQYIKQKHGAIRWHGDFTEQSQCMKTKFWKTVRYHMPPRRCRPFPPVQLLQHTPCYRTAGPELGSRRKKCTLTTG

T2: CD40L (UniProt P29965 1-261, limits assumed)
T2 construct: whole, on cells; also called cytokine over-expressing Expi293 cells (CD40L)
T2 sequence (looked up): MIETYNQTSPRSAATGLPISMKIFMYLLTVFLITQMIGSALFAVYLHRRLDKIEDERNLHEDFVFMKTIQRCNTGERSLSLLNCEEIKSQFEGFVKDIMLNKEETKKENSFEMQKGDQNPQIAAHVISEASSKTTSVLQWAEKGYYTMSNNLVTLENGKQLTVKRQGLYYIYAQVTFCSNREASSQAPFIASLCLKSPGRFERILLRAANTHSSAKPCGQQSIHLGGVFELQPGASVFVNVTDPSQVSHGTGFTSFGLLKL


target: T1, IL1RL2 over-expressed on Expi293 cells; assay: flow cytometry, over-expressing Expi293 vs parent cells, 100 nM antibody;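 note: ratio is mean fluorescence intensity on over-expressing Expi293 cells divided by that measured on parental Expi293 cells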
Experimental: (§1) All incubations and washes were in buffer containing PBS+1% BSA. MFI Ratio is defined by the mean fluorescence intensity (MFI) of the cytokine over-expressing Expi293 cell over the Expi293 parent cell. […] EC50 was calculated in GraphPad Prism.

100 nM FACS (MFI Ratio) | Binder
8.71 | IL1RL2-284 (antibody, V domains shown, IgG2) VH: EVQLLESGGGLVQPGGSLRLSCAASGFTFTSHAMSWVRQAPGKGLEWVSGISGSGANTYYADSVKGRFTISRDNSKNTLYLQMNSLRAEDTAVYYCARDGIVVVPAANHSYYYYYGMDVWGQGTLVTVSS VL: DIQMTQSPSSLSASVGDRVTITCRASQSISVHLNWYQQKPGKAPKLLIYIASNLQSGVPSRFSGSGSGTDFTLTISSLQPEDFATYYCQQTYTTPYTFGGGTKVEIK
7.44 | IL1RL2-297 (antibody, V domains shown, IgG2) VH: EVQLLESGGGLVQPGGSLRLSCAASGFTFRSHAMSWVRQAPGKGLEWVSALSGSGGRTYYADSVKGRFTISRDNSKNTLYLQMNSLRAEDTAVYYCASSGAGVSDYWGQGTLVTVSS VL: DIQMTQSPSSLSASVGDRVTITCRASQSIDTNLNWYQQKPGKAPKLLIYAASNLQHGVPSRFSGSGSGTDFTLTISSLQPEDFATYYCQQSSSIPLTFGGGTKVEIK
19.9 | IL1RL2-296 (antibody, V domains shown, IgG2) VH: EVQLLESGGGLVQPGGSLRLSCAASGFIFSNFAMSWVRQAPGKGLEWVSGISGSGSSTNYADSVKGRFTISRDNSKNTLYLQMNSLRAEDTAVYYCARGFWSGYYGMDVWGQGTLVTVSS VL: DIQMTQSPSSLSASVGDRVTITCRASRSISTYLNWYQQKPGKAPKLLIYAASSSQSGVPSRFSGSGSGTDFTLTISSLQPEDFATYYCQQTYATPWTFGGGTKVEIK
11.7 | IL1RL2-301 (antibody, V domains shown, IgG2) VH: EVQLLESGGGLVQPGGSLRLSCAASGFPLSSYAMSWVRQAPGKGLEWVSLISGSGVSTYYADSVKGRFTISRDNSKNTLYLQMNSLRAEDTAVYYCARGWGAAEEWGQGTLVTVSS VL: DIQMTQSPSSLSASVGDRVTITCRASQSVSYYLNWYQQKPGKAPKLLIYGAVNLQSGVPSRFSGSGSGTDFTLTISSLQPEDFATYYCQQSHTIPYTFGQGTKVEIK
10.2 | IL1RL2-293 (antibody, V domains shown, IgG2) VH: EVQLLESGGGLVQPGGSLRLSCAASGFTISNYAMSWVRQAPGKGLEWVSGISGSGSSTFYADSVKGRFTISRDNSKNTLYLQMNSLRAEDTAVYYCAKPDSGQWWGVDQWGQGTLVTVSS VL: DIQMTQSPSSLSASVGDRVTITCRASQSIGNYVNWYQQKPGKAPKLLIYAASNLEDGVPSRFSGSGSGTDFTLTISSLQPEDFATYYCQQSYNTPLTFGGGTKVEIK
3.07 | IL1RL2-295 (antibody, V domains shown, IgG2) VH: EVQLLESGGGLVQPGGSLRLSCAASGFSFTTYAMSWVRQAPGKGLEWVSGISGGGGSTYYADSVKGRFTISRDNSKNTLYLQMNSLRAEDTAVYYCAKLVLSNRGGVDYWGQGTLVTVSS VL: DIQMTQSPSSLSASVGDRVTITCRASQSIRSHLNWYQQKPGKAPKLLIYRASTLQTGVPSRFSGSGSGTDFTLTISSLQPEDFATYYCQQSYSILPVTFGGGTKVEIK
3.98 | IL1RL2-283 (antibody, V domains shown, IgG2) VH: EVQLLESGGGLVQPGGSLRLSCAASGFAFRSYAMSWVRQAPGKGLEWVSAITGSGTSTYYADSVKGRFTISRDNSKNTLYLQMNSLRAEDTAVYYCARDILWNYRVADYWGQGTLVTVSS VL: DIQMTQSPSSLSASVGDRVTITCRASLSISRYLNWYQQKPGKAPKLLIYTASSLHSGVPSRFSGSGSGTDFTLTISSLQPEDFATYYCQQSYRTPPWTFGGGTKVEIK
8.4 | IL1RL2-290 (antibody, V domains shown, IgG2) VH: EVQLLESGGGLVQPGGSLRLSCAASGFAFRSYAMSWVRQAPGKGLEWVSAITGSGTSTYYADSVKGRFTISRDNSKNTLYLQMNSLRAEDTAVYYCARDILWNYHVADYWGQGTLVTVSS VL: DIQMTQSPSSLSASVGDRVTITCRASLSISRYLNWYQQKPGKAPKLLIYTASSLHSGVPSRFSGSGSGTDFTLTISSLQPEDFATYYCQQSYRTPPWTFGGGTKVEIK
11.7 | IL1RL2-292 (antibody, V domains shown, IgG2) VH: EVQLLESGGGLVQPGGSLRLSCAASGLTFNNYAMSWVRQAPGKGLEWVSGISGSSGNTYYVDSVKGRFTISRDNSKNTLYLQMNSLRAEDTAVYYCARGPNHGMFDAWGQGTLVTVSS VL: DIQMTQSPSSLSASVGDRVTITCRASQSIGYYLNWYQQKPGKAPKLLIYSATSLQSGVPSRFSGSGSGTDFTLTISSLQPEDFATYYCQHRGTFGGGTKVEIK
5.31 | IL1RL2-289 (antibody, V domains shown, IgG2) VH: EVQLLESGGGLVQPGGSLRLSCAASGFTFTKYAMSWVRQAPGKGLEWVSGISGSGGYTYYADSVKGRFTISRDNSKNTLYLQMNSLRAEDTAVYYCARGAGSPDYWGQGTLVTVSS VL: DIQMTQSPSSLSASVGDRVTITCRASQNIRSYLNWYQQKPGKAPKLLIYATSNLQRGVPSRFSGSGSGTDFTLTISSLQPEDFATYYCQQSYRAPYIFGGGTKVEIK

target: T2, CD40L; assay: flow cytometry, 100 nM IgG, CD40L over-expressing Expi293 cells over parent Expi293 cells
Experimental: as §1

100 nM FACS (MFI Ratio) | Binder
6.6 MFI ratio | CD40L-205 (antibody, V domains shown) VH: EVQLLESGGGLVQPGGSLRLSCAASGFDFSDYEMSWVRQAPGKGLEWVSSITSEGGSTYYADSVKGRFTISRDNSKNTLYLQMNSLRAEDTAVYYCAKPDVLFDYWGQGTLVTVSS VL: DIQMTQSPSSLSASVGDRVTITCSGDNLGDKYVHWYQQKPGKAPKLLIYGKNIRPSGVPSRFSGSGSGTDFTLTISSLQPEDFANYYCQQTYSIPYTFGQGTKVEIK
7.3 MFI ratio | CD40L-214 (antibody, V domains shown) VH: EVQLLESGGGLVQPGGSLRLSCAASGFTFEDTEMDWVRQAPGKGLEWVSSITSEGGSTYYADSVKGRFTISRDNSKNTLYLQMNSLRAEDTAVYYCAKPDVLFDYWGQGTLVTVSS VL: DIQMTQSPSSLSASVGDRVTITCSGDNLRGYYASWYQQKPGKAPKLLIYGENSRPSGVPSRFSGSGSGTDFTLTISSLQPEDFATYYCQQSYENPLTFGQGTKVEIK
11.9 MFI ratio | CD40L-207 (antibody, V domains shown) VH: EVQLLESGGGLVQPGGSLRLSCAASGFTFEDTEMDWVRQAPGKGLEWVSSITSEGGSTYYADSVKGRFTISRDNSKNTLYLQMNSLRAEDTAVYYCAKPDKDFDYWGQGTLVTVSS VL: DIQMTQSPSSLSASVGDRVTITCRASQRISSFLNWYQQKPGKAPKLLIYDASNLQSGVPSRFSGSGSGTDFTLTISSLQPEDFATYYCQPSFYFPYAFGQGTKVEIK
1.6 MFI ratio | CD40L-208 (antibody, V domains shown) VH: EVQLLESGGGLVQPGGSLRLSCAASGFTFASYEMTWVRQAPGKGLEWVSSITSEGGSTYYADSVKGRFTISRDNSKNTLYLQMNSLRAEDTAVYYCAKPDKDFDYWGQGTLVTVSS VL: DIQMTQSPSSLSASVGDRVTITCRASQTIGDYLNWYQQKPGKAPKLLIYLGSELQSGVPSRFSGSGSGTDFTLTINSLQPEDFATYYCQTWDTGESGVFGQGTKVEIK
2.2 MFI ratio | CD40L-210 (antibody, V domains shown) VH: EVQLLESGGGLVQPGGSLRLSCAASGGYNFRDYMHWVRQAPGKGLEWVATISGGGINTYYPDSVKGRFTISRDNSKNTLYLQMNSLRAEDTAVYYCAKDLGQGFDYWGQGTLVTVSS VL: DIQMTQSPSSLSASVGDRVTITCSGDKLGDKYTSWYQQKPGKVPKLLIYQNDKRPSGVPSRFSGSGSGTDFTLTISSLQPEDFATYYCQQNNNWPTTFGQGTKVEIK
12.1 MFI ratio | CD40L-211 (antibody, V domains shown) VH: EVQLLESGGGLVQPGGSLRLSCAASGGYNFRDYMHWVRQAPGKGLEWVAEIRNKANNHATKYADSVKGRFTISRDNSKNTLYLQMNSLRAEDTAVYYCAKNLGQGFDYWGQGTLVTVSS VL: DIQMTQSPSSLSASVGDRVTITCRASQTIGDYLNWYQQKPGKAPKLLIYETSKLASGVPSRFSGSGSGTDFTLTISSLQPEDFATYYCQQSYSTPTFGQGTKVEIK
